Source: patent US20150335719A1, “Intravitreal Injection of a Chimeric Phage Endolysin Ply187; Protection from Staphylococcus aureus Endophthalmitis” (priority 2014, published 2015)

Legend:
[1] = test system: cultured microglia, Müller glia and RPE; test: Cytotoxicity analysis in vitro; assay type: cell-based; conditions: data not shown
S. aureus strain RN6390 = test: Inoculum effect study in vitro; assay type: cell-based, Staphylococcus aureus; conditions: dilutions 1:10,000 to 1:10, 1 h at MIC
Source text: FIGS. 4 A, B and C depict the effect of chimeric Ply187AN-KSH3b on bacterial growth in vivo and in the vitreous humor (VH) in vitro and with increasing inoculums in vitro respectively. […] Twenty-four hours after the treatment, the eyes were enucleated, homogenized and the bacterial burden was estimated via serial dilution plating. FIG. 4B depicts a test showing the effect of the vitreous humor on Ply187AN-KSH3b antimicrobial activity where Ply187AN-KSH3b was mixed with calf vitreous humor and inoculated with 10^5 CFU of S. aureus. The survival of the bacteria was enumerated by CFU count at 2, 4 and 6 h of incubation. Statistical analysis was performed using unpaired student's t test (*, p<0.05; **, p<0.005; ***, p<0.0005). […] An increasing number of dilutions (1:10,000 to 1:10) of logarithmic phase of S. aureus (RN6390 strain) were treated with Ply187AN-KSH3b for 1 h followed by CFU enumeration on TSA plates. Statistical analysis was performed using unpaired student's t test (*, p<0.05; **, p<0.005; ***, p<0.0005).
To determine the effect of Vitreous Humor (VH) on antimicrobial activity of chimeric Ply187AN-KSH3b in vitro, bacteria (10^5 CFU) were incubated with chimeric Ply187AN-KSH3b in the presence of calf VH. Following incubation at 37° C. for the desired time, bacterial growth in VH was enumerated by serial dilution plating. […]

[2] = test system: S. aureus (strain RN6390, USA 300, R 2932, R 2952, R 3000) biofilms; test: Biofilm disruption (Live/Dead BacLight staining and CFU count); assay type: cell-based, Staphylococcus aureus; conditions: 24 h biofilms treated for 30 min
Method: FIGS. 2A-2E depicts the biofilm disruption activity of chimeric Ply187AN-KSH3b. In FIG. 2A-2E, either chimeric Ply187AN-KSH3b or EB (EB C) or Gentamicin (for MDR/MRSA strains/isolates) was applied to cover slips containing S. aureus RN6390 (FIG. 2A), USA 300 (FIG. 2B), R 2932 (FIG. 2C), R 2952 (FIG. 2D) and R3000 (FIG. 2E) biofilms for 30 min. Bacterial killing was assessed via Live/Dead™ staining and subsequent fluorescence microscopy. FIG. 2F depicts the viability of biofilm associated bacteria enumerated by CFU count. Error bars represent the mean±SEM of two independent experiments performed in triplicate.
Biofilm disruption by the chimeric Ply187AN-KSH3b was observed using Live/Dead BacLight™ staining which takes advantage of SYTO™ 9, a green-fluorescent nucleic acid stain and propidium iodide that fluoresces red. SYTO™ 9 labels a bacterial population with an intact membrane and fluoresces green. In contrast, propidium iodide penetrates bacteria with damaged membranes and fluoresces red. Briefly, static biofilms of S. aureus (strain RN6390, USA 300, R 2932, R 2952, R 3000) were grown on glass cover slips in 6 well tissue culture plates in fresh TSB media seeded with S. aureus. After incubation at 37° C. for 24 h, the biofilms were treated for an additional 30 min with chimeric Ply187AN-KSH3b (as per MIC) diluted in EB or with EB/gentamicin alone. The biofilms were then stained with the Live/Dead BacLight™ bacterial viability kit (Invitrogen, Carlsbad, Calif.), per manufacturer's instruction. The cover slips were washed three times with PBS to remove excess stain and cell debris, mounted with mounting oil on a glass slide, and examined with an Eclipse 90i fluorescence microscope (Nikon, Melville, N.Y.).

S. aureus RN6390 (MSSA) = test: MIC against S. aureus strains (Table 1); assay type: cell-based, Staphylococcus aureus; conditions: mean of three experiments ± SEM
Method: For in vivo studies, an antibiotic sensitive S. aureus (SA) strain RN6390 was used to induce endophthalmitis; whereas, the in vitro studies were performed using antibiotic-resistant strains (Table 1), including USA300, a community-associated methicillin resistant S. aureus (CA-MRSA), and three clinical isolates R2932 (CA-MRSA), R2952 and R3000 (both being hospital-associated MRSA, […]), […]) kindly provided by Dr. Michael J. Rybak (Department of Pharmaceutical Sciences, Wayne State University, Detroit, Mich.). All bacteria were routinely cultured in TSB broth (Tryptic Soy broth, Sigma, St Louis, Mo.) or on TSB agar plates.
To verify and quantify the lytic activity against live S. aureus, we have tested Ply187AN-KSH3b in the Turbidity Reduction Assay. The turbidity assay measures the drop in optical density (OD) resulting from lysis of the target bacteria with the phage endolysin-derived protein. Turbidity reduction assays by chimeric Ply187AN-KSH3b were performed in a 96 well plate as described previously by Becker et al. (2009a, 2009b, supra). Briefly, S. aureus strains/isolates RN6390, USA 300, and clinical isolates R2932, R2952 and R3000 were grown to logarithmic phase (OD600 0.4-0.6) at 37° C. in tryptic Soy broth (TSB). The culture was harvested by centrifugation and the pellet was resuspended in assay buffer (400 mM NaCl, 20 mM Tris HCl, 1% glycerol, pH 7.5). Bacterial cultures (100 μl/well) were mixed with 100 μl of (as per MIC) of chimeric Ply187AN-KSH3b protein diluted in the same assay buffer. The reduction in the turbidity was measured after every 5 min up to 1 h using a micro plate reader. EB diluted in the same assay buffer (without chimeric Ply187AN-KSH3b protein) was used as a control (EB C). Resistance development against chimeric Ply187AN-KSH3b was tested using repeated exposure in an MIC assay as described by Rodriguez-Rubio and co-workers (Rodriguez-Rubio et al., PLoS One 8:e64671.). In brief, bacterial cultures (10^5 CFU/well) were exposed overnight to a 2-fold serial dilution of chimeric Ply187AN-KSH3b, lysostaphin, and gentamicin, where the latter serve as controls. In every round, 100 μl culture from the wells with growth (½ MIC value) were inoculated into fresh TSB and grown up to logarithmic phase. These cultures were used for the next round of MIC exposure. Bacteria surviving after 10 rounds were grown for an additional 5 rounds in TSB without any selection pressure to allow phenotype-reversion, then MIC were performed to measure the sensitivity to the chimeric Ply187AN-KSH3b after non-selective growth.

B1: Ply187AN-KSH3b: staphylococcal peptidoglycan hydrolase fusion protein: endopeptidase domain of prophage endolysin Ply187 plus SH3b cell wall-binding domain of phage K endolysin LysK (SEQ ID NO:1) (protein)
chain: MALPKTGKPTAKQVVDWAINLIGSGVDVDGYYGRQCWDLPNYIFNRYWNFKTPGNARDMAWYRYPEGFKVFRNTSDFVPKPGDIAVWTGGNYNWNTWGHTGIVVGPSTKSYFYSVDQNWNNSNSYVGSPAAKIKHSYFGVTHFVRPAYKAEPKPTPPLESTPATRPVTGSWKKNQYGTWYKPENATFVNGNQPIVTRIGSPFLNAPVGGNLPAGATIVYDEVCIQAGHIWIGYNAYNGNRVYCPVRTCQGVPPNQIPGVAWGVFKVEHHHHHH
modifications: Chemically Synthesized Fusion Protein
B1 was tested, and the “retinal cell death in vitro” value [1] was “does not cause retinal cell death”, the “activity with increasing bacterial numbers” value (S. aureus strain RN6390) was “no reduction in Ply187AN-KSH3b activity” and the “biofilm disruption by Live/Dead staining” value [2] was “successfully disrupted biofilms”. The “CFU counts of biofilm associated bacteria” value ([2]; all strains tested) was “almost zero” and the MIC (S. aureus RN6390 (MSSA)) was 4.16 ± 1.04 µg/mL.
